Data reported in patent publication US20250163127A1.
Positions count from the first letter of the chain named. Names may count otherwise.

B1: ICOSL-Fc N52S/N57M/Q100S (Fc fusion)
chain: DTQEKEVRAMVGSDVELSCACPEGSRFDLNDVYVYWQTSESKTVVTYHIPQSSSLEMVDSRYRNRALMSPAGMLRGDFSLRLFNVTPQDEQKFHCLVLSSSLGFQEVLSVEVTLHVAANFSVPVVSAPHSPSQDELTFTCTSINGYPRPNVYWINKTDNSLLDQALQNDTVFLNMRGLYDVVSVLRIARTPSVNIGCCIENVLLQQNLTVGSQTGNDIGERDKITENPVSTGEKNAAT
B2: ICOSL-Fc N52R/N57L/Q100S (Fc fusion)
chain: B1 chain with S52R, M57L
B3: ICOSL-Fc N52L/N57H/Q100R (Fc fusion)
chain: B1 chain with S52L, M57H, S100R
B4: ICOSL-Fc N57Q/Q100P (Fc fusion)
chain: B1 chain with S52N, M57Q, S100P
B5: ICOSL-Fc N52T/N57H/Q100S (Fc fusion)
chain: B1 chain with S52T, M57H
B6: ICOSL-Fc N52C/N57E/Q100S (Fc fusion)
chain: B1 chain with S52C, M57E
B7: ICOSL-Fc N52S/N57Y/Q100S (Fc fusion)
chain: B1 chain with M57Y
B8: ICOSL-Fc N52K/N57Y/Q100R (Fc fusion)
chain: B1 chain with S52K, M57Y, S100R
B9: ICOSL-Fc N52R/N57W/Q100K (Fc fusion)
chain: B1 chain with S52R, M57W, S100K
B10: ICOSL-Fc N52V/N57T/Q100L (Fc fusion)
chain: B1 chain with S52V, M57T, S100L
B11: ICOSL-Fc N52L/N57V (Fc fusion)
chain: B1 chain with S52L, M57V, S100Q
B12: ICOSL-Fc N52G/N57V (Fc fusion)
chain: B1 chain with S52G, M57V, S100Q
B13: ICOSL-Fc N52T/N57H/Q100A (Fc fusion)
chain: B1 chain with S52T, M57H, S100A
B14: ICOSL-Fc N52R/N57F/Q100T (Fc fusion)
chain: B1 chain with S52R, M57F, S100T
B15: ICOSL-Fc N52P/N57S/Q100G (Fc fusion)
chain: B1 chain with S52P, M57S, S100G
B16: ICOSL-Fc N52R/N57Y/Q100R (Fc fusion)
chain: B1 chain with S52R, M57Y, S100R
B17: ICOSL-Fc N52S/N57Y/Q100M (Fc fusion)
chain: B1 chain with M57Y, S100M
B18: ICOSL-Fc N52G/N57V/Q100G (Fc fusion)
chain: B1 chain with S52G, M57V, S100G
B19: ICOSL-Fc N52S/N57Y/Q100V (Fc fusion)
chain: B1 chain with M57Y, S100V
B20: variant CD80 V4M/L70Q/A91G/I118V/T120S/T130A/K169E (Fc fusion)
chain: VIHMTKEVKEVATLSCGHNVSVEELAQTRIYWQKEKKMVLTMMSGDMNIWPEYKNRTIFDITNNLSIVIQALRPSDEGTYECVVLKYEKDGFKREHLAEVTLSVKADFPTPSISDFEVPSSNIRRIICSASGGFPEPHLSWLENGEELNAINTTVSQDPETELYAVSSELDFNMTTNHSFMCLIKYGHLRVNQTFNWNTTKQEHFPDN
B21: variant CD80 V22A/L70Q/S121P (Fc fusion)
chain: B20 chain with M4V, V22A, G91A, V118I, S120T, S121P, A130T, E169K
B22: variant CD80 A91G/L102S (Fc fusion)
chain: B20 chain with M4V, Q70L, L102S, V118I, S120T, A130T, E169K
B23: variant CD80 K37E/F59S/L70Q/A91G/T120S/T130A (Fc fusion)
chain: B20 chain with M4V, K37E, F59S, V118I, E169K
B24: variant CD80 K54M/L70Q/A91G/Y164H (Fc fusion)
chain: B20 chain with M4V, K54M, V118I, S120T, A130T, Y164H, E169K
B25: variant CD80 S44P/L70Q/A91G/T130A (Fc fusion)
chain: B20 chain with M4V, S44P, V118I, S120T, E169K
B26: variant CD80 L70Q/A91G/T110A/I118V/T120S/T130A (Fc fusion)
chain: B20 chain with M4V, T110A, E169K
B27: variant CD80 I67F/L70R/E88G/A91G/I118V/T120S/T130A (Fc fusion)
chain: B20 chain with M4V, I67F, Q70R, E88G, E169K
B28: variant CD80 A91G/F92L/F108L/I118V/T120S (Fc fusion)
chain: B20 chain with M4V, Q70L, F92L, F108L, A130T, E169K
B29: variant CD80 L70Q/A91G/I118V/T120S/T130A/K169E (Fc fusion)
chain: B20 chain with M4V
B30: variant CD80 A12V/S15F/Y31H/M38L/T41G/M43L/D90N/T130A/P137L/N149D/N152T (Fc fusion)
chain: VIHVTKEVKEVVTLFCGHNVSVEELAQTRIHWQKEKKLVLGMLSGDMNIWPEYKNRTIFDITNNLSIVILALRPSDEGTYECVVLKYEKNAFKREHLAEVTLSVKADFPTPSISDFEIPTSNIRRIICSASGGFPELHLSWLENGEELDAITTTVSQDPETELYAVSSKLDFNMTTNHSFMCLIKYGHLRVNQTFNWNTTKQEHFPDN

Substrate: ICOS (Homo sapiens (Human)) (UniProt Q9Y6W8)
Experiment: flow cytometry, transfected cells

Sequence of ICOS (Homo sapiens (Human)) (Q9Y6W8 21-199 limits assumed): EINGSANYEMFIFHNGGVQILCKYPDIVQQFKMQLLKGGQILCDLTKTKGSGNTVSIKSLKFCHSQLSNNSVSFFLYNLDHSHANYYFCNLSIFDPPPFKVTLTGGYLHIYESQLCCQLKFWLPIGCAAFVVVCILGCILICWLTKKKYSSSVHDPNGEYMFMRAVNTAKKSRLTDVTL

Row | MFI [MFI] | MFI ratio to WT (ΔWT) [fold] | Binder
1 | 312000 | 1.47 | B1
2 | 231000 | 1.09 | B2
3 | 250000 | 1.18 | B3
4 | 205000 | 0.97 | B4
5 | 259000 | 1.22 | B5
6 | 125000 | 0.59 | B6
7 | 224000 | 1.06 | B7
8 | 199000 | 0.94 | B8
9 | 349000 | 1.65 | B9
10 | 29200 | 0.14 | B10
11 | 257000 | 1.21 | B11
12 | 332000 | 1.57 | B12
13 | 220000 | 1.04 | B13
14 | 270000 | 1.27 | B14
15 | 143000 | 0.68 | B15
16 | 6100 | 0.03 | B16
17 | 303000 | 1.43 | B17
18 | 260000 | 1.23 | B18
19 | 219000 | 1.03 | B19

Biological target: PD-L1 (human)
Experiment: flow cytometry, cells expressing PD-L1

Sequence of PD-L1 (human) (chain, as listed by the source): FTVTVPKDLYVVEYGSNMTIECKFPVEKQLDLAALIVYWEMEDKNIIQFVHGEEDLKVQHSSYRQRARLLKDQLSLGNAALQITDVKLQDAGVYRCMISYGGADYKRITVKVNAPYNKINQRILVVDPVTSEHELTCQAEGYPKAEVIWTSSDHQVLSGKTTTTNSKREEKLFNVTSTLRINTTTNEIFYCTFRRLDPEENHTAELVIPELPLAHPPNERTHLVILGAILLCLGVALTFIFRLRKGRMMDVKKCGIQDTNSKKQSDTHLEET

Row | MFI [MFI] | parental ratio | Binder
20 | 6 | 0.09 | B20
21 | 5 | 0.07 | B21
22 | 5 | 0.08 | B22
23 | 6 | 0.08 | B23
24 | 5 | 0.08 | B24
25 | 5 | 0.07 | B25
26 | 5 | 0.07 | B26
27 | 6 | 0.08 | B27
28 | 16 | 0.11 | B28
29 | 6 | – | B29
30 | 5 | 0.08 | B30

Biological target: CD28 (human) (UniProt P10747)
Experiment: flow cytometry, transfected cells

Row | MFI [MFI] | MFI ratio to WT (ΔWT) [fold] | Binder
31 | 134000 | 6 | B1
32 | 112000 | 5 | B2
33 | 141000 | 6.3 | B3
34 | 15200 | 0.7 | B4
35 | 143000 | 6.4 | B5
36 | 13400 | 0.6 | B6
37 | 161000 | 7.2 | B7
38 | 141000 | 6.3 | B8
39 | 131000 | 5.9 | B9
40 | 6200 | 0.3 | B10
41 | 54800 | 2.5 | B11
42 | 69100 | 3.1 | B12
43 | 113000 | 5 | B13
44 | 127000 | 5.7 | B14
45 | 6800 | 0.3 | B15
46 | 3280 | 0.1 | B16
47 | 157000 | 7 | B17
48 | 23700 | 1.1 | B18
49 | 126000 | 5.7 | B19

Biological target: CTLA-4 (Homo sapiens (Human)) (UniProt P16410)
Experiment: flow cytometry, transfected cells

Sequence of CTLA-4 (Homo sapiens (Human)) (P16410 36-223): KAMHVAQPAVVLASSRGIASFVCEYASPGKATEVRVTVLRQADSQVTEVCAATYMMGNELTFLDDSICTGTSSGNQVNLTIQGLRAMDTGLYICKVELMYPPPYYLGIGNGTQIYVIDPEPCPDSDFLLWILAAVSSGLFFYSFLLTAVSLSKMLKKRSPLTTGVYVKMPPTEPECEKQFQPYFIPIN

Row | MFI [MFI] | MFI ratio to WT (ΔWT) [fold] | Binder
50 | 228000 | 0.69 | B1
51 | 289000 | 0.88 | B2
52 | 353000 | 1.07 | B3
53 | 69100 | 0.21 | B4
54 | 378000 | 1.14 | B5
55 | 10600 | 0.03 | B6
56 | 205000 | 0.62 | B7
57 | 233000 | 0.71 | B8
58 | 477000 | 1.44 | B9
59 | 11500 | 0.03 | B10
60 | 151000 | 0.46 | B11
61 | 52500 | 0.16 | B12
62 | 350000 | 1.06 | B13
63 | 358000 | 1.08 | B14
64 | 5050 | 0.02 | B15
65 | 4270 | 0.01 | B16
66 | 395000 | 1.2 | B17
67 | 14700 | 0.04 | B18
68 | 305000 | 0.92 | B19

Biological target: CD28 (human) (UniProt P10747)
Experiment: flow cytometry, cells expressing CD28

Row | MFI [MFI] | parental ratio | Binder
69 | 89 | 0.94 | B20
70 | 5 | 0.06 | B21
71 | 6 | 0.06 | B22
72 | 20 | 0.21 | B23
73 | 68 | 0.71 | B24
74 | 88 | 0.92 | B25
75 | 8 | 0.09 | B26
76 | 5 | 0.05 | B27
77 | 50 | 0.53 | B28
78 | 6 | 0.06 | B30

Biological target: CTLA-4 (human)
Experiment: flow cytometry, cells expressing CTLA-4

Sequence of CTLA-4 (human) (chain, as listed by the source): as the sequence (P16410 36-223) above

Row | MFI [MFI] | parental ratio | Binder
79 | 263 | 1.26 | B20
80 | 7 | 0.04 | B21
81 | 6 | 0.03 | B22
82 | 74 | 0.36 | B23
83 | 131 | 0.63 | B24
84 | 134 | 0.64 | B25
85 | 14 | 0.07 | B26
86 | 6 | 0.03 | B27
87 | 128 | 0.61 | B28
88 | 6 | 0.03 | B30
